Results on seven molecules are retold here after US20140148503, “NUCLEIC ACID APTAMERS” (University of Iowa Research Foundation, published 2014).

Data set [1] deals with T1, PSMA (prostate specific membrane antigen) (Homo sapiens, UniProt Q04609 Q04609:44-750). Kind of data set: SPR; 1:1 with mass transfer; range 5-30 nM in triplicate; 20 mM HEPES pH 7.4, 150 mM NaCl, 2 mM CaCl2. The conditions noted are these: tags: R&D Systems 4234-ZN-010; chain copies: 2; label: 5'-biotin-spacer9-G. As to the method: The data were fit to a 1:1 binding with mass transfer model. […] The on-rate (kₐ) was 1.15×10⁴ M⁻¹·S⁻¹ and the off-rate (kd) was 5.7×10⁻⁵ s⁻¹.
T1 sequence (Q04609 44-750, one chain of several): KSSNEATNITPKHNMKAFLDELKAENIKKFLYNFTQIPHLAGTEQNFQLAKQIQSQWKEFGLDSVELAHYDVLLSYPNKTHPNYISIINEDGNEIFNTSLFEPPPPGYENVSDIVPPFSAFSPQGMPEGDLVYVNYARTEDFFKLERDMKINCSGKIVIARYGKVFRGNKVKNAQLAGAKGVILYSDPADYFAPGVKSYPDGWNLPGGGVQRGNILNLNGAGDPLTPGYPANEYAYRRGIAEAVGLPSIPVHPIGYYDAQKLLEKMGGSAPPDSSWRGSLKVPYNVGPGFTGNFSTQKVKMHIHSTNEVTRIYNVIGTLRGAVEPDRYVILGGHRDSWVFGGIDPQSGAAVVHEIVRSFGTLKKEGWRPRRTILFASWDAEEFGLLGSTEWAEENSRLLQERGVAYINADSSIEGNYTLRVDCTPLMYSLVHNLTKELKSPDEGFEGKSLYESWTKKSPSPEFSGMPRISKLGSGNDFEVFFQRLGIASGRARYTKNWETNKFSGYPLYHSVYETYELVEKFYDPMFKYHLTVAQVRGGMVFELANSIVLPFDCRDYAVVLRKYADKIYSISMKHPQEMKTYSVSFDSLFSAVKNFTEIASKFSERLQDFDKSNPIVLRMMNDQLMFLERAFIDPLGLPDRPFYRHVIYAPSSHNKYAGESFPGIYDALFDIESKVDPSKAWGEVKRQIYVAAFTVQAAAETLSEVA
Surface Plasmon Resonance (SPR) measurements were carried out using a BIACore 3000 device. 5′-biotinylated RNA was generated by transcription and gel purification as described above, except the transcription reactions were carried out in the presence of 3 mM biotin-G (Custom order from TriLink Biotechnologies, San Diego, Calif.: 5′-(Biotin) (Spacer 9) G-3′). The biotinylated RNA was immobilized on a streptavidin-coated Biacore chip (Sensor Chip SA, 13R-1003-98, General Electric Company) by injection in binding buffer at a concentration of 25 μg/mL (20 mM HEPES, pH 7.4, 150 mM NaCl, 2 mM CaCl₂). The RNA was refolded by heating to 65° C. followed by cooling to 37° C. prior to immobilization. […]
The NAALADase activity assay provides an indirect measurement of the interaction of the PSMA aptamers with PSMA. […] As determined by the filter binding assay, the A9g aptamer retains the same binding profile as the full-length A9 (FIG. 3A). […] After the injection was halted, the rate of dissociation (koff) was measured. By repeating these measurements at various analyte (PSMA) concentrations, an accurate estimation of binding was determined (KD=koff/Kₒₙ).
A general note: In SPR one partner is held on a chip, and binding of the other changes the refractive index at the surface.

Data set [2] deals with T2, BSA (bovine serum albumin) (UniProt P02769 P02769:25-607). Put plainly: SPR; no appreciable interaction; specificity control. The conditions noted are these: label: 5'-biotin-spacer9-G. As to the method:
(§1) Surface Plasmon Resonance (SPR) measurements were carried out using a BIACore 3000 device. 5′-biotinylated RNA was generated by transcription and gel purification as described above, except the transcription reactions were carried out in the presence of 3 mM biotin-G (Custom order from TriLink Biotechnologies, San Diego, Calif.: 5′-(Biotin) (Spacer 9) G-3′). The biotinylated RNA was immobilized on a streptavidin-coated Biacore chip (Sensor Chip SA, 13R-1003-98, General Electric Company) by injection in binding buffer at a concentration of 25 μg/mL (20 mM HEPES, pH 7.4, 150 mM NaCl, 2 mM CaCl₂). The RNA was refolded by heating to 65° C. followed by cooling to 37° C. prior to immobilization. To measure binding kinetics, fixed concentrations of purified protein were injected over the chip using the “KINJECT” function at a flow rate of 15 μL/min. After binding, the chip was regenerated by injecting 50 mM NaOH with the “QUICKINJECT” function. […]
(§2) Binding specificity of the A9g aptamer for PSMA was determined using SPR/BIACore (FIG. 4D; left panel). Binding specificity was assessed by comparing the kₒₙ, and koff rates of A9g for recombinant PSMA protein (target) to the Kₒₙ, and koff rates of A9g for non-target proteins (BSA and HER2). […] No appreciable interaction between A9g and the non-target proteins (BSA and HER2) was measured (FIG. 4D; left panel). […]

In data set [3] the target is T1, PSMA (prostate specific membrane …). Put plainly: filter; Bmax severely diminished. The conditions noted are these: tags: R&D Systems 4234-ZN-010; chain copies: 2. From the text:
FIGS. 4A-4D. Characterization of A9g binding to PSMA. (A) Secondary structural predictions of truncated A9 aptamers generated using the RNAStructure 4.6 algorithm. Base changes are denoted by an asterisk (*). Base changes were introduced in an attempt to either retain the predicted secondary structure (A9g.1 and A9g.2) or disrupt various secondary structural elements (A9g.3-A9g.6) of A9g. Two secondary structure predictions were given for the A9g.4 sequence, denoted by A9g.4a and A9g.4b. (B) Effect of A9g aptamer derivatives (A9g.1 through A9g.6) on PSMA NAALADase inhibitor activity. NAALADase activity was measured and normalized as in FIG. 1. (C) Saturation filter binding assay of A9g aptamer and A9g aptamer derivatives (A9g.3-A9g.6). (D) Binding of A9g to recombinant human PSMA, recombinant rat HER2 (rHER2), and BSA using BIACore (left panel). Binding of A9g.6 to recombinant human PSMA, recombinant rat HER2 (rHER2), and BSA using BIACore (right panel).
(§3) Filter binding assays were performed as previously described (Wong, I. and Lohman, T. M. (1993) A double-filter method for nitrocellulose-filter binding: application to protein-nucleic acid interactions. Prac Natl Acad Sci USA, 90, 5428-5432). Briefly, aptamers were 5′-end labeled with ³²P using PNK. RNA was incubated for 5 minutes with various concentrations of purified, recombinant human PSMA (4234-ZN-010) obtained from R&D Systems at 37° C. The reaction mixture was spotted onto a sandwich of nitrocellulose (Protran BA 83, 0.2 μm pore size, 10 402 488, Whatman), nylon (Zeta-Probe Blotting Membranes, 162-0153, Bio-Rad), and Whatman 3MM chromatography paper (3130-6189) assembled in a dot-blot apparatus. Bound RNA was captured on the nitrocellulose filter, while unbound RNA was captured on the nylon filter. The ratio of bound:unbound RNA was calculated by exposing the filters to a storage phosphor screen and imaging with a phosphorimager.

For data set [4] the target is unchanged. Put plainly: SPR; lack of binding. The following applies: tags: R&D Systems 4234-ZN-010; chain copies: 2; label: 5'-biotin-spacer9-G. As for the experimental part:
as §1, §2

For data set [5], the target named is T2, BSA (bovine serum albumin). Kind of data set: SPR; no measurable binding. The conditions noted are these: label: 5'-biotin-spacer9-G. As to the method:
as §1, §2

Data set [6] concerns the target T1, PSMA (prostate specific membrane …). Kind of data set: inhibition; NAALADase; 1 mM CoCl2, 37 C. The conditions noted are these: tags: R&D Systems 4234-ZN-010; chain copies: 2. As for the experimental part: Refolding was accomplished by heating at 65° C. for 10 minutes, followed by cooling to 37° C. for 10 minutes. A volume of 120 μL of refolded RNA in binding buffer was added to an Eppendorf tube, was combined with 40 μL of 200 mM Tris buffer, pH 7.5, and 20 μL 10 mM CoCl₂ (final concentrations in the reaction 40 mM and 1 mM, respectively). Cobalt (II) chloride was reported to be a “stimulator of enzymatic activity” in the original NAALADase assay protocol (Xiao, Z., et al., (2000) Generation of a baculovirus recombinant prostate-specific membrane antigen and its use in the development of a novel protein biochip quantitative immunoassay. Protein Expr Purif, 19, 12-21). When this compound was omitted from the reaction, we observed increased non-specific RNA interactions. Two micrograms in 2 μL of recombinant human PSMA (4234-ZN-010) from R&D Systems (Minneapolis, Minn.) was diluted in 500 μL of 50 mM pH 7.5 Tris buffer. Ten microliters of the PSMA solution (40 ng PSMA) was added to the reaction mix, and the reaction was incubated for 5 minutes at 37° C. to promote RNA-PSMA interaction. For the experiment shown in FIG. 1A, recombinant, purified human PSMA was obtained courtesy of Dr. David Spencer (Baylor College of Medicine, Houston, Tex.). […]
AG 1-X8 formate resin (200-400 mesh) columns from Bio-Rad (731-6221) were used to quantitate the [³H]-glutamate reaction product. […]

The target is the same in data set [7]. Kind of data set: 32P-labeled RNA on cells, on ice. The conditions noted are these: tags: 22Rv1 (1.7) prostate cancer cells; chain copies: 2. As to the method: One day prior to the binding assay, cells were plated in a 24-well plate at a density of approximately 100,000 cells per well. All subsequent procedures were performed on ice to prevent aptamer internalization. Prior to binding, each well was washed twice with 1 ml of ice-cold Dulbecco's phosphate-buffered saline in the absence of divalent cations (DPBS −/−) to remove growth media. Aptamers were 5′ end-labeled with ³²P using PNK from New England Biolabs as previously described (McNamara, J. O., et al., (2008) Multivalent 4-1BB binding aptamers costimulate CD8+ T cells and inhibit tumor growth in mice. J Clin Invest, 118, 376-386). The concentration of ³²P-radiolabeled aptamer was measured with UV-visible absorption spectroscopy, and serial dilutions ranging from 1000 nM to 30 nM were performed. To measure non-specific binding, serial dilutions were also made containing a high fixed concentration of non-radiolabeled A9g aptamer, at 10 μM. […] Bound RNA was collected by washing with 0.5 ml of 0.5 N NaOH which was added to 3 ml of scintillation fluid, and activity was measured. For each dilution, specific binding was calculated by subtracting the activity of the sample with a high concentration of non-radiolabeled (“cold”) aptamer added (i.e., non-specific binding) from the sample without cold aptamer added (i.e., total binding). […]

The target is the same in data set [8]. Kind of data set: filter; 37 C. The conditions noted are these: tags: R&D Systems 4234-ZN-010; chain copies: 2.
Text: FIGS. 3A-3B. Binding of A9 and A9g to human PSMA. (A) A saturation filter binding assay was used to measure binding of A9 and A9g to recombinant human PSMA protein. […] The fraction bound was normalized to the Bₘₐₓ (maximal binding capacity) of A9. (B) Measurement of the binding affinity of A9g for recombinant human PSMA protein by surface plasmon resonance (SPR, BIACore). The data were fit to a 1:1 binding with mass transfer model. […] The on-rate (kₐ) was 1.15×10⁴ M⁻¹·S⁻¹ and the off-rate (kd) was 5.7×10⁻⁵ s⁻¹.
as §3, with “Bound RNA was captured on the nitrocellulose filter, while unbound RNA was captured on the nylon filter.” left out

Data set [9] has the same target. Kind of data set: inhibition; NAALADase of membrane extract. The conditions noted are these: protein: extract; tags: membrane extract of PC-3 (PSMA+) cells stably expressing human PSMA; chain copies: 2.
The target is the same in data set [10]. Put plainly: cell_activity; transwell migration; invasion IC50 75 nM (FIG. 15C). The following applies: tags: PSMA-expressing cells, migration and invasion assays; chain copies: 2.
Data set [11] has the same target. Kind of data set: cell_activity; transwell migration. The conditions noted are these: tags: PSMA-expressing cells, migration and invasion assays; chain copies: 2.

T2 sequence (P02769 25-607, one chain of several): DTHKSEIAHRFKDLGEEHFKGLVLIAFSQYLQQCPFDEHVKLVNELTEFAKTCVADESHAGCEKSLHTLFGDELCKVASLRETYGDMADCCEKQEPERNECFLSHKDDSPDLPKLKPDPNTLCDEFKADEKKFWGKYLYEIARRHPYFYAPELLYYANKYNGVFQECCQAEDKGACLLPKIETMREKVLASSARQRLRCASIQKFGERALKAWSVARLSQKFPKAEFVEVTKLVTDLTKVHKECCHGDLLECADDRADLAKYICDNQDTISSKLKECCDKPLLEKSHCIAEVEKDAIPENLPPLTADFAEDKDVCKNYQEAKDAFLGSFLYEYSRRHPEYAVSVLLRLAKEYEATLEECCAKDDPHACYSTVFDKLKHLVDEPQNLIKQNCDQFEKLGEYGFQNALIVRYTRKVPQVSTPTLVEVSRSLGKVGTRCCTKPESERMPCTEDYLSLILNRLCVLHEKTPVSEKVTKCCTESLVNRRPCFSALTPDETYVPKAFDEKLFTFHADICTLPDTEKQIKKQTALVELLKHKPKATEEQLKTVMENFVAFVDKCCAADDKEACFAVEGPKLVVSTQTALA

As for GGGACCGAAAAAGACCUGACUUCUAUACUAAGUCUACGUUCCC (ssRNA, 2'-F pyrimidines) [A9g 5'-biotin], the Kd in [1] amounted to 5 nM. Further, the binding result in [2] is given as “no binding”.

As for GGGACCGAAAAAGACCUGGCUUCUAUACUAAGUCUACGUUCCC (ssRNA, 2'-F pyrimidines) [A9g.6], the binding result in data set [3] was “no binding”.

Regarding GGGACCGAAAAAGACCUGACUUCUAUACUAGGUCUACGUUCCC (ssRNA, 2'-F pyrimidines) [A9g.5], in [3], the binding result is listed as “no binding”.

As to GGGACCGAAAAAGACCUGGCUUCUAUACUAAGUCUACGUUCCC (ssRNA, 2'-F pyrimidines) [A9g.6 5'-biotin], the binding result in data set [4] and in data set [5] was “no binding” throughout.

For GGGACCGAAAAAGACCUGACUUCUAUACUAAGUCUACGGUCCC (ssRNA, 2'-F pyrimidines) [A9g.3 (U39G)], in data set [3], the binding result is reported as “no binding”.

Regarding GGGACCGAAAAAGACCUGACUUCUAUACUAAGUCUACGUUCCC (ssRNA, 2'-F pyrimidines) [A9g], the results for the IC50 in [6], in data set [9] and in data set [10] were roughly 10 nM, 290 nM and 18 nM, respectively. For the same molecule, the binding signal in data set [7] is ~2 fold binding capacity vs PSMA-negative PC-3. Moreover, in data set [8], the Kd was determined as 130 nM.

B1: A9 (ssRNA)
RNA: GGGAGGACGAUGCGGACCGAAAAAGACCUGACUUCUAUACUAAGUCUACGUUCCCAGACGACUCGCCCGA
modifications: 2'-F pyrimidines
For the molecule B1, the IC50 in data set [6] was roughly 10 nM; in [11] it was 81 nM; in data set [9] it was 267 nM. For the same molecule, in [8], the Kd turned out to be 110 nM.

For orientation: Kd means the equilibrium constant for the complex coming apart. As usually defined, the IC50 is the concentration that gives 50% inhibition. A higher IC50 goes with weaker potency in that assay.
